Assay [1] has as its target human melanocortin-3 receptor (human) (UniProt P41968). The assay is described as follows: cell-based or functional assay.
Assay [2] concerns the target human melanocortin-4 receptor (human) (UniProt P32245). The assay is described as follows: cell-based or functional assay.
In assay [3] the target is human melanocortin-1 receptor (human) (UniProt Q01726). The assay can be described thus: competition with [125I]-NDP-alpha-MSH, CHO-K1 cell membranes.
Assay [4] concerns the target human melanocortin-3 receptor (human) (UniProt P41968). Described as above.
Assay [5] concerns the target human melanocortin-4 receptor (human) (UniProt P32245). Described as above.

Drawing on US20210163536A1, this text covers EC50, intracellular cyclic AMP (cAMP) levels and Ki for one molecule.

Bridges are numbered along the chain shown (N, C = ends). [ ]: non-standard residue; d: D form.

Sequence of human melanocortin-3 receptor (human) (P41968 whole entry): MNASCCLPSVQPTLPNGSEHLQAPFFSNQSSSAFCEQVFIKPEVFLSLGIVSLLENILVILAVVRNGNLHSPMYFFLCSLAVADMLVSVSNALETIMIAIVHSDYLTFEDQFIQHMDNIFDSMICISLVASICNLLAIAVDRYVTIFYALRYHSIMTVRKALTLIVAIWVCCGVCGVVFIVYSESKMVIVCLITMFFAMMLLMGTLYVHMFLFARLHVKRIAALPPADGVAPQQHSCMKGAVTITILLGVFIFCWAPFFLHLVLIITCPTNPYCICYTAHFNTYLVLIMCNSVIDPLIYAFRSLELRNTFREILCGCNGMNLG
Sequence of human melanocortin-4 receptor (human) (P32245 whole entry): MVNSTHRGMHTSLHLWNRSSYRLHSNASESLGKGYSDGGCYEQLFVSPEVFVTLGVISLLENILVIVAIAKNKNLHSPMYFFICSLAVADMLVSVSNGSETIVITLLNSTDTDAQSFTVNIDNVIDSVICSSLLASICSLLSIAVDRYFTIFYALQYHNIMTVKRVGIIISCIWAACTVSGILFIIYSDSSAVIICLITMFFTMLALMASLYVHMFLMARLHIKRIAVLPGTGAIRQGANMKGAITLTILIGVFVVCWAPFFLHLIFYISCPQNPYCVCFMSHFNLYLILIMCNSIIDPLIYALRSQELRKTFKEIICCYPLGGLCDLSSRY
Sequence of human melanocortin-1 receptor (human) (Q01726 whole entry): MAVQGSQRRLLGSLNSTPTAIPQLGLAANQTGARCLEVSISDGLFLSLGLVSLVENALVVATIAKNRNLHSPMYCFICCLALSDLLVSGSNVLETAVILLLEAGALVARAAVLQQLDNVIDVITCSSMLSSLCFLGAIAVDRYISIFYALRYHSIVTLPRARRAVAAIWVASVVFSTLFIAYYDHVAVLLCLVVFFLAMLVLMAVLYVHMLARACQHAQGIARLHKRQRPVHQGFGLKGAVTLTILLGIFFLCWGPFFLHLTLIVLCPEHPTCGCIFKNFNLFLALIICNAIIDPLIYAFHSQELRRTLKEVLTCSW

B1: cyclo[Hydantoin(C(O)-(Glu-D-Ala))-His-D-Phe-Arg-Trp-Lys]-NH2 (peptide)
peptide: H[dF]RWK-NH2
modifications: lactam N-5; not fully specified (N-terminus); printed as cyclo[Hydantoin(C(O)-(Glu-D-Ala))-His-D-Phe-Arg-Trp-Lys]-NH2; also: hydantoin ring from Glu and D-Ala with C(O) joining their backbone nitrogens
As usually defined, the Ki is the dissociation constant of the complex between target and ligand, obtained from inhibition or displacement. A lower Ki goes with higher affinity. Turning to B1, the EC50, intracellular cyclic AMP (cAMP) levels amounted to 0.0223 µM in assay [1] and 0.00362 µM in assay [2]. Moreover, the figures for the Ki in assay [3], in assay [4] and in assay [5] were 0.0726 µM, 1.92 µM and 0.0452 µM, respectively.
